For data set [1], the system named is LAP-mIL-4 fusion protein with aggrecanase cleavage site B05 (HNEFRQRETYMVF).
Target sequence (chain, as listed by the source): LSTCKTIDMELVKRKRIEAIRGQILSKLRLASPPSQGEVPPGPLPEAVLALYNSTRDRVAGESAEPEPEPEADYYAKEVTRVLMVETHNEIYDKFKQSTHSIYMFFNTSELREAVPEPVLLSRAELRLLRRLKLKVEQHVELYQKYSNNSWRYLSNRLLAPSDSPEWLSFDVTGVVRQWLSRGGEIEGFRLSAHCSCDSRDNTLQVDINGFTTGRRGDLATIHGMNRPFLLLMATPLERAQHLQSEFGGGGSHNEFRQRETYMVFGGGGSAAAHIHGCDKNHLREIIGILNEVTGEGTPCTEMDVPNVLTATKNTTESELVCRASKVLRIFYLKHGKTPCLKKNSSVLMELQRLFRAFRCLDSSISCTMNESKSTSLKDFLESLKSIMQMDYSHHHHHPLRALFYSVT
Data set [2] concerns LAP-mIL-4 fusion protein with aggrecanase cleavage site B06 (DVQEFRGVTAVIR).
Target sequence (chain, as listed by the source): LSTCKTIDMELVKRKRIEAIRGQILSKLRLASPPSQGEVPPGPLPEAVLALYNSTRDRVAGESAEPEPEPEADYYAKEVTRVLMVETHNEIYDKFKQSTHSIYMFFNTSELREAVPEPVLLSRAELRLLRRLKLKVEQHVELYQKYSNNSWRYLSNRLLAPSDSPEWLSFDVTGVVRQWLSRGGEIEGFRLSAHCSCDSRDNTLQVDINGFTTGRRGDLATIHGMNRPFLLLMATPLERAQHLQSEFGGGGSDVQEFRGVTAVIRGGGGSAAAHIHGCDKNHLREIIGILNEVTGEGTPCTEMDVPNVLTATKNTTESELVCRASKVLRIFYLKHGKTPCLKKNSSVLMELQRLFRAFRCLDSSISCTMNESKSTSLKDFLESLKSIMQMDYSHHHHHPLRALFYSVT

B1: ADAMTS-4 (aggrecanase-1), recombinant (enzyme, UniProt O75173 213-837, looked up, species assumed)
A disintegrin and metalloproteinase with thrombospondin motifs 4: FASLSRFVETLVVADDKMAAFHGAGLKRYLLTVMAAAAKAFKHPSIRNPVSLVVTRLVILGSGEEGPQVGPSAAQTLRSFCAWQRGLNTPEDSDPDHFDTAILFTRQDLCGVSTCDTLGMADVGTVCDPARSCAIVEDDGLQSAFTAAHELGHVFNMLHDNSKPCISLNGPLSTSRHVMAPVMAHVDPEEPWSPCSARFITDFLDNGYGHCLLDKPEAPLHLPVTFPGKDYDADRQCQLTFGPDSRHCPQLPPPCAALWCSGHLNGHAMCQTKHSPWADGTPCGPAQACMGGRCLHMDQLQDFNIPQAGGWGPWGPWGDCSRTCGGGVQFSSRDCTRPVPRNGGKYCEGRRTRFRSCNTEDCPTGSALTFREEQCAAYNHRTDLFKSFPGPMDWVPRYTGVAPQDQCKLTCQAQALGYYYVLEPRVVDGTPCSPDSSSVCVQGRCIHAGCDRIIGSKKKFDKCMVCGGDGSGCSKQSGSFRKFRYGYNNVVTIPAGATHILVRQQGNPGHRSIYLALKLPDGSYALNGEYTLMPSPTDVVLPGAVSLRYSGATAASETLSGHGPLAQPLTLQVLVAGNPQDTRLRYSFFVPRPTPSTPRPTPQDWLHRRAQILEILRRRPWAGRK
Consider B1, for which the “cleavage of the fusion protein in 293T supernatant after overnight incubation at 37 C, Western blot probed with anti-IL-4 antibody” value in data set [1] was “the Agg1 and Agg2 constructs are cleaved by ADAMTS-4”; in the data set on LAP-MMP IL-4, “LAP-MMP IL-4 is only cleaved by MMP-1 (not cleaved by aggrecanase)”; in data set [2] it was “the Agg1 and Agg2 constructs are cleaved by ADAMTS-4”.

The values are drawn from US8357515.
